According to paper PMC4668074, “NDK Interacts with FtsZ and Converts GDP to GTP to Trigger FtsZ Polymerisation - A Novel Role for NDK” (PLoS ONE, 2015):

How the values were obtained:
[1] = biological target: T1, 6xHis-MtFtsZ (Mycobacterium tuberculosis FtsZ) (Mycobacterium tuberculosis, UniProt P9WN95 1-379); assay: pull-down; conditions: both partners purified
T1 construct: also called MtZ
T1 sequence: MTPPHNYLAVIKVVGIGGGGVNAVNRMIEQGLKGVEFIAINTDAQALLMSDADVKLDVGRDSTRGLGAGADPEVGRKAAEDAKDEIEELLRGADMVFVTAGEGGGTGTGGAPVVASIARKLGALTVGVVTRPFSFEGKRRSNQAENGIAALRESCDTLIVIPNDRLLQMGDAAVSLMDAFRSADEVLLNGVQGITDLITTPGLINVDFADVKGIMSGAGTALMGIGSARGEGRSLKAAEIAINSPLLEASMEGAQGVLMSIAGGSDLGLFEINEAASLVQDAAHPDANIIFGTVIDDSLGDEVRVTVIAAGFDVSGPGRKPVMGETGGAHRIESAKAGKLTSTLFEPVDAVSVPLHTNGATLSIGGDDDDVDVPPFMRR

[2] = biological target: T2, 6xHis-EcFtsZ (FtsZ of E. coli) (E. coli, UniProt P0A9A6 1-383); assay: pull-down; conditions: both partners purified
T2 sequence (looked up): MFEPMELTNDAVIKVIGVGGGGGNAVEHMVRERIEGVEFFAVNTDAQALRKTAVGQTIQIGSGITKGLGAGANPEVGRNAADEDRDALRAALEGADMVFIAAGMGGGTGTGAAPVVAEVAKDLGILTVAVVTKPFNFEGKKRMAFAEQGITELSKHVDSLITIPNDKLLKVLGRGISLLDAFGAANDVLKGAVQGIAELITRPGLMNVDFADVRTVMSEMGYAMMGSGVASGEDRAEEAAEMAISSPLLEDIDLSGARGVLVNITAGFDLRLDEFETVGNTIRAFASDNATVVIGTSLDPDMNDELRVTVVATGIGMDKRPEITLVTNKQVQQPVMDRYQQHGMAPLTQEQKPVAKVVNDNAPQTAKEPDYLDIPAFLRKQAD

B1: GST-MtNDK (Mycobacterium tuberculosis nucleoside diphosphate kinase) (enzyme)
chain: MTERTLVLIKPDGIERQLIGEIISRIERKGLTIAALQLRTVSAELASQHYAEHEGKPFFGSLLEFITSGPVVAAIVEGTRAIAAVRQLAGGTDPVQAAAPGTIRGDFALETQFNLVHGSDSAESAQREIALWFPGA
notes: also called GST-NDK; MtNDK-Wt
[1]
  binding result: binds
[2]
  binding result: binds
